These results are taken from paper PMC3314614, “The Tandem CARDs of NOD2: Intramolecular Interactions and Recognition of RIP2” (PLoS ONE, 2012).

One test deals with Pop1 PYD (Homo sapiens) (UniProt Q8WXC3). As to conditions: cited from earlier work.
The target of test [1] is NOD2-CARDb (isolated) (human) (UniProt Q9HC29). Nature of the test: ITC; CARDa in the syringe, CARDb in the cell; 25°C; 50 mM Tris-HCl, 100 mM NaCl, 2 mM DTT, pH 7.5; one-site model. (In general: ITC needs no label: the signal is the heat of the interaction.)
The target is the same in test [2]. Described as above. This is another data set of the same source.
Test [3] shares this target. Nature of the test: ITC; CARDa in the syringe, CARDb in the cell; 30°C; 50 mM Tris-HCl, 100 mM NaCl, 2 mM DTT, pH 7.5; one-site model.
Test [4] has the same target. Nature of the test: ITC; CARDa in the syringe, CARDb in the cell; 30°C; 50 mM Tris-HCl, 1000 mM NaCl, 2 mM DTT, pH 7.5.
Test [5] shares this target. As to the kind of experiment: ITC; CARDa in the syringe, CARDb in the cell; 30°C; 50 mM Tris-HCl, 250 mM NaCl, 2 mM DTT, pH 7.5.
Test [6] shares this target. Nature of the test: ITC; CARDa in the syringe, CARDb in the cell; 18°C; 50 mM Tris-HCl, 100 mM NaCl, 2 mM DTT, pH 7.5; one-site model.
The target is the same in test [7]. Nature of the test: ITC; CARDa in the syringe, CARDb in the cell; 30°C; 50 mM Tris-HCl, 50 mM NaCl, 2 mM DTT, pH 7.5.
For test [8] the target is unchanged. As to the kind of experiment: AUC; sedimentation velocity; individual samples and a 1:1 mixture of CARDa and CARDb; optical density 0.5 at 280 nm; SedFit.
Test [9] shares this target. Nature of the test: ITC; CARDa in the syringe, CARDb in the cell; 30°C; 50 mM Tris-HCl, 500 mM NaCl, 2 mM DTT, pH 7.5.
The target of test [10] is Tube DD (Drosophila melanogaster) (UniProt P22812). The note with it: cited from earlier work.
Test [11] addresses caspase-1 CARD (Homo sapiens) (UniProt P29466). As to conditions: cited from earlier work.
In another test the target is T1, procaspase-9 CARD (UniProt P55211 1-92).
T1 construct: procaspase-9, CARD
T1 sequence (looked up): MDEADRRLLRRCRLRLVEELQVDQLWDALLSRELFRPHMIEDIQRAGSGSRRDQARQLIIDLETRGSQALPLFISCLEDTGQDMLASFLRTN
As to the kind of experiment: ITC; data not shown; at different temperatures. As to conditions: both partners purified.

Chain of Pop1 PYD (Homo sapiens) (Q8WXC3 whole entry): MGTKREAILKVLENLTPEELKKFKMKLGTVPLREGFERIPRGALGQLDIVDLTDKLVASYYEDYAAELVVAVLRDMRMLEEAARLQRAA
Chain of caspase-1 CARD (Homo sapiens) (P29466 1-94): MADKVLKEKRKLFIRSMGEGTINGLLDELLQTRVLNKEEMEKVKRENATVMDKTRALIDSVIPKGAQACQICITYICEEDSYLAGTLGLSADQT
Chain of Tube DD (Drosophila melanogaster) (P22812 27-152): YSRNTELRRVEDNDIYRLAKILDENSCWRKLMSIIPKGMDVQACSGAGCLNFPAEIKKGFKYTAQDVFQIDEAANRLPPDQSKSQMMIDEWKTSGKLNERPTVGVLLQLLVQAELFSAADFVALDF

For the molecule ASC PYD (from UniProt Q9ULZ3), the Kd (as a rule, the free concentration of one partner at which half of the binding sites on the other are occupied at equilibrium, for simple one-to-one binding) in the test with Pop1 PYD (Homo sapiens) is 4000 nM.

For “NOD2-CARDa (isolated, wild type) (from UniProt Q9HC29 28-119) (domain or fragment)”, the Kd in test [1] worked out at 880 nM; in test [2], 1100 nM; in [3], 1410 nM; in test [4] it was 7140 nM; in test [5], 2990 nM; in [6], 1080 nM. The Kd in test [7] was determined as 1090 nM; in [9] it was 6250 nM. The dH was -4.7 kcal/mol in [1]; -7.4 kcal/mol in test [3]; -2.6 kcal/mol in [4]; -5.5 kcal/mol in [5]; -2 kcal/mol in test [6]; -9 kcal/mol in [7]. The dH in test [9] is -4.8 kcal/mol. Further, the stoichiometry N (in general, a count of units in the complex or per binding partner) came out at 1.03 in [1]; 0.91 in [3]; 0.78 in test [4]; 0.99 in test [5]; 0.84 in test [6]; 0.61 in [7]. The stoichiometry N in [8] was 1; in [9], 0.85.

For “NOD2-CARDa E69K (isolated) (from UniProt Q9HC29 28-119) (domain or fragment)”, in test [1], the Kd came to 720 nM, the dH is -3.8 kcal/mol and the stoichiometry N came out at 0.94.

In [1], “NOD2-CARDa E72K (isolated) (from UniProt Q9HC29 28-119) (domain or fragment)” yielded a Kd of 330 nM, a dH of -5.2 kcal/mol and a stoichiometry N of 0.81.

Turning to “NOD2-CARDa R86A (isolated) (from UniProt Q9HC29 28-119) (domain or fragment)”, in test [1], the Kd was 810 nM, the dH was -4.8 kcal/mol and the stoichiometry N was 0.91.

As to Pelle DD (from UniProt Q05652), in test [10], the Kd was 500 nM.

For RIP2 CARD (from UniProt O43353), the Kd in test [11] is 1400 nM.

B1: Apaf-1 CARD (domain or fragment, UniProt O14727 1-90, looked up)
chain: MDAKARNCLLQHREALEKDIKTSYIMDHMISDGFLTISEEEKVRNEPTQQQRAAMLIKMILKKDNDSYVSFYNALLHEGYKDLAALLHDG
notes: Apaf-1, CARD
As to B1, the Kd with procaspase-9 CARD lay within 1000 to 4000 nM.
